Measured values reported in article PMC3562662.

Substrate: O=C(O)/C=C/c1ccc(O)c(O)c1
Assay: radiometric methyltransferase assay, scintillation counting, nonlinear Michaelis-Menten fit
Assay type: biochemical, Brachypodium distachyon
Conditions: co-substrate S-[methyl-14C]-adenosyl-L-methionine plus unlabeled SAM, 0.1 M Tris-HCl pH 7.5, 30°C, 20 min, methods heading b55 names BdCOMT1

B1: BdCOMT4 (Brachypodium distachyon) (protein)
chain: MGSTAADMAATADEEACMFALQLASSSILPMTLKNAIELGLLDTLVQASGKSLTPAEVAAKLPSSSNPAAPDMVDRMLRLLASYGVVSCAVEEGENGKLSRRYAAAPVCKWLTPNEDGVSMAALALMNQDKVLMESWYYLKDAVLDGGIPFNKAYGMSAFEYHGTDPRFNRVFNEGMKNHSIIITKKLLDLYPGFEGLGTLVDVGGGVGATVGAIVARHPAIKGINFDLPHVISEGIPFPGVTHVGGDMFQKVPSGDAILMKWILHDWSDAHCATLLKNCYDALPAHGKVVIVECILPVNPEATPKAQGVFHVDMIMLAHNPGGKERYEREFEELARGAGFTGVKATYIYANAWAIEFTK
notes: full-length cDNA (from Bd21-3 plants) in pQE-T7-1, NdeI/XhoI, His-tagged; primer adds Met-Lys-Gln before native Met; expressed in E. coli, Ni-NTA purified
  Km: 187 µM
